Assay results published in US20220226425A1, “METHOD OF TREATING MELANOCORTIN-4 RECEPTOR PATHWAY-ASSOCIATED DISORDERS” (RHYTHM PHARMACEUTICALS, INC., priority 2015, published 2022).

Target: melanocortin 5 receptor (human) (UniProt P33032)
Experiment: cell-based or functional assay

Sequence of melanocortin 5 receptor (human) (P33032 whole entry): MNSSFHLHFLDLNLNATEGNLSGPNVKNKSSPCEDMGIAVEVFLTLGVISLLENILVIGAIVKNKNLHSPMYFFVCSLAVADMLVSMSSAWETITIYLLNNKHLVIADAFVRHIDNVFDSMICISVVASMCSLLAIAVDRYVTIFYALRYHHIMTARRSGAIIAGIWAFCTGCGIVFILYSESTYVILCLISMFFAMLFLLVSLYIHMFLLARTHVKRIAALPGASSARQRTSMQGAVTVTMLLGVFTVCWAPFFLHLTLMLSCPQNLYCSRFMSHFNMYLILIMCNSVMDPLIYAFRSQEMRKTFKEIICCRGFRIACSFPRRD

RM-493 (peptide)
EC-50 (nM), cAMP accumulation: 1680 nM
